Laboratory results published in the supplement of paper PMC10567573.

B1: WDR41 (parent)
chain: WTMQAYERNFWDPSPQLDTQQEIK
B2: SNX3 (parent)
chain: FLRQLPFRGDDGIFDDNFIEERKQ

Variants of: B1
Assay: protein stability index of a GFP-peptide fusion (GPS, HEK-293T) (PSI 1-6); higher = more stable
Conditions: c terminus: a fixed tail appended
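Note: lentivirally expressed fusions sorted by FACS into six bins by GFP to DsRed ratio, PSI derived from sequencing read proportions per bin multiplied by bin number.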

Protein stability index of substitutions, site by site:
Q4: N 1.67; C 2.27
P13: R 3.01; C 2.31
K24: Y 2.46
Y6: I 2.67
L17: V 2.75
S14: M 2.47
T19: C 2.19; H 2.74
D18: M 2.19
D12: M 2.93
W1: P 4.6
W11: P 3.97
Q21: T 2.5
E7: H 2.32
R8: L 2.42; G 2.59; Q 3.26
A5: Q 2.85

Variants of: B2
Assay: as above
Conditions: c terminus: a fixed tail appended

Protein stability index of substitutions, site by site:
F18: D 4.12; E 4.47; C 4.21; A 4.56
D10: E 3.33; C 3.52; G 2.76; W 2.35; P 3.42; Y 1.9; H 3.65; L 2.42; I 2.03; K 3.41; A 3.12; T 3.2; F 2.62; S 3.35; V 3.72; Q 3.56; N 2.64; M 3.41; R 3.27
F14: D 4.79; V 3.81; L 3.56; C 3.06; K 4.23; Y 2.84; A 4.26; Q 3.67; E 4.56; H 4.32; T 3.86; W 3.38; I 3.76; R 3.88; M 3.67; S 3.87; G 4.33
Q4: N 2.13; A 3.78; D 4.26; C 2.83; V 3.07; W 2.7; H 2.94; M 3.22; G 4.33; T 3.08; Y 1.48; I 2.55; P 1.95; E 3.85; F 2.44; L 1.91; S 2.95; K 2.67; R 2.27
R8: H 3.96; F 2.44; C 2.33; S 3.61; M 3.1; K 3.69; A 3.15; T 3.97; V 3.56; E 3.94; I 2.67; Q 4.22; N 3.68; L 2.95; D 2.9; Y 3.96; W 3.08; G 3.79; P 3.75
N17: F 2.58; Q 3.71; A 2.54; M 2.79; W 1.94; H 3.41; C 3.27; G 4.12; T 3.22; Y 2.38; K 3.98; D 3.83; R 2.61; V 2.97; E 4.18; I 2.7; P 3.23; L 2.28
G12: D 3.67; A 3.79; T 3.66; W 2.67; H 3.77; M 3.79; S 3.21; N 3.23; V 3.07; K 4.03; C 3.03; Q 3.84; L 3.01; F 3.03; Y 2.91; E 3.64; R 3.1; P 2.74; I 2.39
D15: S 3.15; G 3.12; F 2.74; W 2.89; Y 2.43; M 3.28; Q 2.97; E 3.18; R 2.71; N 2.75; V 2.65; L 3.28; H 3.06; I 2.53; T 3.94; P 3.04; A 3.45; C 2.99; K 2.96
L2: E 4.87; H 2.34; I 2.59; Q 3.07; P 4.66; D 4.72; W 3.02; N 4.08; V 2.19; K 2.81; M 4.01; C 3.48; S 4.56; T 4.04; Y 4.46; F 3.16; G 4.59; A 3.84
D11: H 3.15; N 3.01; M 3.05; I 2.53; G 4.22; C 2.91; Q 3.16; W 1.94; T 3.37; A 4.01; K 3; P 4.1; V 4.03; S 4.12; F 2.74; Y 2.32; E 2.9; R 2.46; L 2.71
L5: R 3.99; N 3.78; Q 3.72; V 4.15; Y 2.78; M 3.39; K 4.01; F 3.36; P 3.78; S 4.01; D 3.71; T 3.77; A 3.1; G 3.74; H 3.22; I 2.18; E 4.62; W 1.96
G9: E 3.17; W 3.02; K 3.39; D 3.04; L 2.99; V 3.08; T 2.97; A 3.68; H 3.08; S 3.41; Y 2.53; C 2.79; P 3.06; I 2.9; F 3.36; N 2.72; Q 2.98; R 3.27
I13: Y 3.83; H 3.67; M 3.03; D 4.24; G 3.52; P 4.03; E 4; N 3.28; V 3.3; S 3.8; A 4.22; L 3.26; F 3.03; K 4.7; T 3.48; W 2.72; Q 4.03
D16: I 3.19; P 3.4; Y 2.8; W 2.73; N 2.88; A 2.62; Q 3; T 3.06; L 2.91; F 2.56; K 3.86; M 2.95; R 3.23; H 3.6; V 3.45; G 3.18; C 3.05; S 3.53
R3: V 2.98; W 1.83; D 3.45; P 4.09; M 2.76; G 3.1; L 1.94; S 3.1; A 3.28; H 3.12; Y 2.28; N 3.48; T 3.17; Q 3.62; C 2.71; I 2.42; K 3.43; E 3.2; F 1.97
F7: E 4.77; V 3.83; Y 3.07; W 3.05; H 3.52; P 2.62; D 4.03; G 3.5; L 3.23; I 2.83; T 4.35; R 3.58; N 3.87; S 3.76; K 4; C 3.16; M 3.32; Q 3.59
P6: T 2.92; W 2.15; A 2.22; C 2.49; V 2.29; S 3.26; G 3.45; I 2.26; D 3.31; M 1.74; E 2.91; Y 2.9; Q 3.32; F 2.14; H 3.1; K 2.88; N 3.02; R 3.1
F1: D 4.7; S 4.72; H 5.32; L 3.83; R 4.59; C 4.1; M 3.56; V 3.87; K 4.68; P 4.99; Q 4.96; N 4.44; T 4.59; I 3.58; W 3.03; A 4.63; Y 4.18
